Patent publication US20250250357A1 (NANJING ZAIMING PHARMACEUTICAL, published 2025)

Legend:
[1] = molecular target: T1, human MSLN-R3-his protein (human, UniProt Q13421 487-598); experiment: ELISA on coated antigen, antibody 0.002 nM
T1 construct: it is put last here; also called human MSLN-R3 protein; hMSLN-R3-his; not shown: His tag

[2] = molecular target: T1, human MSLN-R3-his protein; experiment: ELISA on coated antigen, antibody 200 nM
Experimental: (§1) The plate was sealed with a plastic film and incubated at 4° C. overnight. The next day, the plate was washed twice with PBST, and a blocking buffer [PBS+2% (w/w) BSA] was added for blocking at room temperature for 2 h. The blocking buffer was discarded, and a chimeric antibody or negative control antibody serially diluted from 100 nM was added at 50 μL/well. After incubation at 37° C. for 2 h, the plate was washed 3 times with PBST. […] After incubation at 37° C. for 2 h, the plate was washed 5 times with PBST. A TMB substrate was added at 50 μL/well for incubation at room temperature for 5-10 min, and then a stop solution (1.0 N HCl) was added at 50 μL/well.

[3] = molecular target: T2, human MSLN-R2-his protein (human, UniProt Q13421 391-486); experiment: ELISA on coated antigen, antibody 20 nM
T2 construct: it is put last here; also called human MSLN-R2 protein; hMSLN-R2-his; not shown: His tag
T2 sequence (Q13421 other isoform, or with tags, fused parts or gaps): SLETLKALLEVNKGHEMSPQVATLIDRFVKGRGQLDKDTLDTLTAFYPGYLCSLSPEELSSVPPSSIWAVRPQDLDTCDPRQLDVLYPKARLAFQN

[4] = molecular target: T2, human MSLN-R2-his protein; experiment: ELISA on coated antigen, antibody 0.002 nM
Experimental: as §1

[5] = molecular target: T1, human MSLN-R3-his protein; experiment: ELISA on coated antigen, no antibody (blank, column 'none')
[6] = molecular target: T1, human MSLN-R3-his protein; experiment: ELISA on coated antigen, antibody 2 nM
Experimental: as §1

[7] = molecular target: T1, human MSLN-R3-his protein; experiment: ELISA on coated antigen, antibody 0.0002 nM
Experimental: as §1

[8] = molecular target: T1, human MSLN-R3-his protein; experiment: ELISA on coated antigen, antibody 0.02 nM
Experimental: as §1

[9] = molecular target: T2, human MSLN-R2-his protein; experiment: ELISA on coated antigen, no antibody (blank, column 'none')
Experimental: as §1

[10] = molecular target: T1, human MSLN-R3-his protein; experiment: ELISA on coated antigen, antibody 20 nM
Experimental: as §1

[11] = molecular target: T2, human MSLN-R2-his protein; experiment: ELISA on coated antigen, antibody 0.02 nM
Experimental: as §1

[12] = molecular target: T1, human MSLN-R3-his protein; experiment: ELISA on coated antigen, antibody 0.2 nM
Experimental: as §1

[13] = molecular target: T2, human MSLN-R2-his protein; experiment: ELISA on coated antigen, antibody 0.0002 nM
Experimental: as §1

[14] = molecular target: T2, human MSLN-R2-his protein; experiment: ELISA on coated antigen, antibody 200 nM
Experimental: as §1

[15] = molecular target: T2, human MSLN-R2-his protein; experiment: ELISA on coated antigen, antibody 2 nM
Experimental: as §1

[16] = molecular target: T2, human MSLN-R2-his protein; experiment: ELISA on coated antigen, antibody 0.2 nM
Experimental: as §1

T1 sequence (Q13421 495-606): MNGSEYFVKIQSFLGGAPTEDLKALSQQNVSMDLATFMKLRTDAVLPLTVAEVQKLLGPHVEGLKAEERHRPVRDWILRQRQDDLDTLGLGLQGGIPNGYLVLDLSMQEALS

Row | OD450 [1] [OD] | OD450 [2] [OD] | OD450 [3] [OD] | OD450 [4] [OD] | OD450 [5] [OD] | OD450 [6] [OD] | OD450 [7] [OD] | OD450 [8] [OD] | OD450 [9] [OD] | OD450 [10] [OD] | OD450 [11] [OD] | OD450 [12] [OD] | OD450 [13] [OD] | OD450 [14] [OD] | OD450 [15] [OD] | OD450 [16] [OD] | Binder
1 | 0.27 | 2.91 | 0.06 | 0.05 | 0.06 | 2.46 | 0.1 | 0.9 | 0.06 | 2.48 | 0.05 | 2.2 | 0.05 | 0.1 | 0.05 | 0.05 | S009-F7.44.20 (antibody, human IgG1, kappa, V domains shown, Human-murine chimeric antibody, human IgG1 heavy and kappa light constant regions) VH: EVQLQQSGPELVKPGASVKIPCKASGYTFTDYNMDWVKQSHGKSLEWIGDINPSTGGTIYNQKFNGKATLTEDKSASTVYMEFRSLTSDDTAVYYCARRRIGTGYFDVWGTGTTVTVSS VL: QIVLTQSPALMSASPGEKVTLTCSASSSVISSYLSWYQQKPGSSPKLLIYRTSNLASGVPARFSGSGSGTSYSLTISSMEAEDAASYFCHQWSSFPYTFGGGTKLEIKR
2 | 0.05 | 0.29 | 0.09 | 0.05 | 0.07 | 0.07 | 0.05 | 0.05 | 0.06 | 0.14 | 0.05 | 0.06 | 0.05 | 0.14 | 0.09 | 0.06 | S009-F7.18.10 (antibody, human IgG1, kappa, V domains shown, Human-murine chimeric antibody, human IgG1 heavy and kappa light constant regions) VH: QVQLQQSGAELVRPGTSVKVSCKASGYAFTNYLIEWVKQRPGQGLEWIGVINPGSGGTKYNEKFKGKATLTADKSSSTAYMQLSSLTSEDSAVYFCASDYDYDPFAYWGQGTLVTVSA VL: DIVMTQSHKFMSTSVGDRVSITCKASQDVSTAVAWYQRKPGQSPKLLIYWASTRHTGVPDRFTGSGSGTDYTLTISYMQAEDLALYYCQQHYSTPYTFGGGTKLEIKR
3 | 0.06 | 2.69 | 0.06 | 0.05 | 0.06 | 1.71 | 0.05 | 0.14 | 0.07 | 2.42 | 0.05 | 0.5 | 0.05 | 0.08 | 0.05 | 0.05 | S009-F7.53.2 (antibody, human IgG1, kappa, V domains shown, Human-murine chimeric antibody, human IgG1 heavy and kappa light constant regions) VH: EVQLQQSGPELVKPGASVKIPCKTSGYTFTDYNMDWVKQSHGKSLEWIGDINPNTDGAIYNQKFQNKATLTVDKSSSTAYMELRSLTSEDTAVYYCTRRKLGRKFFDYWGQGTTLTVSS VL: QIVLTQSPAIMSASPGEQVTMTCSASSSVGYMNWYQQKPGSSPRLLIYDTSNLASGVPVHFSGSGSGTSYSLTISRMEAAFAATYYCQQWYVYPYTFGGGTKLEIKR
4 | 0.12 | 3 | 0.12 | 0.07 | 0.06 | 2.43 | 0.07 | 0.69 | 0.08 | 2.46 | 0.07 | 1.92 | 0.07 | 0.15 | 0.11 | 0.07 | S009-F7.41.18 (antibody, human IgG1, kappa, V domains shown, Human-murine chimeric antibody, human IgG1 heavy and kappa light constant regions) VH: QVQLQQPGTELVKPGASVKLSCKASDYTFTSYWMHWVKQRPGQGLEWIGSINPSNGDTYYNEKFKNKATLTVDKSSSTAYMQLSSLTSDDSAVYYCARGWYFDVWGTGTTVTVSS VL: not shown
5 | 0.25 | 2.77 | 0.05 | 0.05 | 0.09 | 2.52 | 0.08 | 0.88 | 0.06 | 2.63 | 0.05 | 1.9 | 0.14 | 0.09 | 0.05 | 0.05 | S009-F7.23.19 (antibody, human IgG1, kappa, V domains shown, Human-murine chimeric antibody, human IgG1 heavy and kappa light constant regions) VH: EVKLVESGGGLVQPGGSLSLSCAASGFTFTDYYMSWVRQPPGKALEWLGFIRSKANAYTTEYSASVKGRFTISRDNSQSILYLQMNDLRAEDSATYYCARYYYYGSGYVWYFDVWGTGTTVTVSS VL: DIVMTQSQKFMSTSVGDRVSVTCKASQSVGTNVAWYQQKPGQFPKALIYSASYRYSGVPDRFTGSGSGTDFTLTIINVQSEDLAEYFCQQYNSYPLTFGAGTKLELKR
6 | 1.04 | 2.84 | 0.04 | 0.06 | 0.08 | 2.85 | 0.23 | 2.13 | 0.07 | 2.67 | 0.06 | 2.7 | 0.06 | 0.08 | 0.06 | 0.06 | S009-F7.33.24 (antibody, human IgG1, kappa, V domains shown, Human-murine chimeric antibody, human IgG1 heavy and kappa light constant regions) VH: QVQLQQPGTELVKPGASVKLSCKASGYTFTSYWMHWVKQRPGQGLEWIGNVNPSNGGSNYNEKFKNKATLTVDKSSSTADMQLNSLTSEDSAVYYCAPHYIGSRPGFAYWGQGTLVTVSG VL: DIVMTQSQKFMSTSVGDRVSVTCKASQNVGTNIAWYQQKPGQSPKALIYSASYRYSGVPDRFTGSGSGTDFTLTITNVQSEDLAEYFCQQYNSYPLTFGGGTKVEIKR
7 | 0.74 | 2.71 | 0.15 | 0.05 | 0.09 | 2.75 | 0.25 | 1.7 | 0.06 | 2.84 | 0.05 | 2.66 | 0.05 | 0.5 | 0.06 | 0.06 | S009-F7.30.5 (antibody, human IgG1, kappa, V domains shown, Human-murine chimeric antibody, human IgG1 heavy and kappa light constant regions) VH: QVQLQQPKTELVKPGASVKLSCKASGYIFTTYWMHWVKQRPGQGLEWIGNVNPSNGGTMYNEKFERRATLTVDKSSSTADMQLSSLTSEDSAVYYCVPHYIGSRPGFAYWGQGTLVTVSG VL: DIVMTQSQKFMSTSVGDRVSVTCKASQNVGTNVAWYQHKPGQSPKALLYSASYRYSGVPDRFTGSGSGTDFTLTITNVQSEDLAEYFCQQYNSYPLTFGGGTKLEIKR
8 | 0.08 | 2.69 | 0.07 | 0.05 | 0.06 | 2.05 | 0.05 | 0.26 | 0.06 | 2.43 | 0.05 | 0.94 | 0.05 | 0.09 | 0.05 | 0.05 | S009-F7.48.1 (antibody, human IgG1, kappa, V domains shown, Human-murine chimeric antibody, human IgG1 heavy and kappa light constant regions) VH: QVQLQQPGTELVKPGASVKLSCKASGYTFTSYWMHWVKQRPGQGLEWIGNINPSNGGTNNNENFKSKATLTVDTSSSTAYMQLSSLTSEDSAVYYCVRNGYHGYWYFDVWGTGTTVTVSS VL: DIVMTQSQKFMSTSVGDRVSVTCKASQNVGTNVAWYQQQPGQSPKALIYSASYRYSGVPDRFTGSVSGTDFTLTISNVQSEDLAEYFCQQYNSYPLTFGGGTKLEIKR
9 | 0.9 | 2.83 | 0.09 | 0.05 | 0.07 | 2.76 | 0.3 | 1.81 | 0.06 | 2.71 | 0.05 | 2.6 | 0.05 | 0.31 | 0.06 | 0.05 | S009-F7.25.19 (antibody, human IgG1, kappa, V domains shown, Human-murine chimeric antibody, human IgG1 heavy and kappa light constant regions) VH: QVQLQQPGTELVKPGASVKLSCKASGYTFTSYWMHWVKQRPGQGLEWIGNIIPSNGGTKYNEKFKSKATLTVDKSSSTAYMQLSSLTSEDSAVYYCSPHYYGGSPGFAYWGQGTLITVSA VL: DIVMTQSQKFMSTSVGDRVSVICKASQNVGTNVAWYQQKPGQSPKALIYSASYRYSGVPDRFTGSGSGTDFTLTISNVQSEDLAEYFCQQYNSYPLTFGGGTKLEIKR
10 | 0.6 | 2.74 | 0.08 | 0.05 | 0.07 | 2.79 | 0.16 | 1.63 | 0.06 | 2.73 | 0.05 | 2.45 | 0.05 | 0.18 | 0.05 | 0.05 | S009-F7.26.15 (antibody, human IgG1, kappa, V domains shown, Human-murine chimeric antibody, human IgG1 heavy and kappa light constant regions) VH: DVQLQESGPGLVKPSQTVFLTCTVTGISITTGNYRWSWIRQFPGNKLEWIGYIYYTGFITYNPSLTSRTTITRDTPKNQFFLEMKSLTAEDTATYYCARDDYDYDVFAYWGQGTLVTVSA VL: DIQMTQSPASLSASVGETVTITCRASGNIHNYLAWYHQKQGKSPQFLVYKAKTLADGVPSRFSGSGSGTQYSLKINRLQPEDFGSYYCQHFLSIPLTFGAGTKLELKR
